{"source": "paper PMC3585047", "about": "(The Journal of Biological Chemistry, 2013)", "biological_target": "APOBEC3G, fluorescein-labelled (F-A3G) (human, UniProt Q9HC16 1-384, fluorescein (Fluorescein-EX Protein Labeling kit), sites not stated)", "sequence (Q9HC16 whole entry)": "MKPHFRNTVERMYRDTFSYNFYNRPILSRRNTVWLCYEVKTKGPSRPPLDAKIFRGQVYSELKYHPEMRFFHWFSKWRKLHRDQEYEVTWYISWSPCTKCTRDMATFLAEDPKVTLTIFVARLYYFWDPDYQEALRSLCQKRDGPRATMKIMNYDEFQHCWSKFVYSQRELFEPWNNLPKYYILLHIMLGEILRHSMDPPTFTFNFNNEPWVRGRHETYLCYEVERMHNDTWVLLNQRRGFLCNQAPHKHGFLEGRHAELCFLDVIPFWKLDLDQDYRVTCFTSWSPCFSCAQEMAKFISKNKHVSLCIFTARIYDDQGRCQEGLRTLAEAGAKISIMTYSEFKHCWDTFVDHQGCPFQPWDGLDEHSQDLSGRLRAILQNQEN", "assay": "fluorescence polarisation"}
{"binder": "GST-Vif_(IIIB) (natural protein) not shown", "values": [{"measurement": "Kd", "result": 0.078, "unit": "µM"}]}
{"binder": "GST-Vif_(HXB2) (natural protein) not shown", "values": [{"measurement": "Kd", "result": 0.09, "unit": "µM"}]}
